The text below walks through data of US20210260113A1, “DEVICES, METHODS, COMPOSITIONS AND SYSTEMS FOR THE TREATMENT OF AGING AND AGE-RELATED DISORDERS” (Gero LLC, priority 2018, published 2021).

No end group written: not given here.

The target in the assay is T1, NBL1 (AA 1-180) protein (FcTag) (Homo sapiens, UniProt P41271).
T1 construct: NBL1 (AA 1-180) protein (FcTag); purchased SinoBiological (via AntibodiesOnline) BIN2002229
T1 sequence (P41271 17-180): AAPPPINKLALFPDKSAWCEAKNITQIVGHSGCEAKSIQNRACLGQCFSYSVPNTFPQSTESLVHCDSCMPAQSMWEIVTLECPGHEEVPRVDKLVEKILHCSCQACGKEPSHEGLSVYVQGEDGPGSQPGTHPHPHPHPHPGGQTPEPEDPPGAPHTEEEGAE
The assay can be described thus: PEPperCHIP Discovery Microarray screening of cyclic peptide binders. Format: binding. The following applies: cyclic peptides of common structure S1 with the given SEQ; NBL1 at 10 μg/ml. From the text: The peptide target binder discovery screening was done with PEPperCHIP® Discovery Microarrays with 36,040 random peptides with alength of 12 amino acids printed in duplicate (72,080 peptide spots). After peptide synthesis, all peptides were cyclized via a thioetherlinkage between a C-terminal cysteine side chain and an appropriately modified N-terminus. The PEPperCHIP® Discovery Microarrays contained additional myc(EQKLISEEDL, 415 spots) and HA (YPYDVPDYAG, 420 spots) control peptides as specified in the peptide maps of the microarray data files.
Samples: NBL1 (AA 1-180) protein (FcTag) (SinoBiological, AntibodiesOnline BIN2002229) Washing Buffer: PBS, pH 7.4 with 0.005% Tween 20 (2×10 sec after each assay) Blocking Buffer: Rockland blocking buffer MB-070 (30 min before the first assay) Incubation Buffer: Washing buffer with 1% blocking buffer Assay Conditions: Protein concentrations of […] in incubation buffer; incubation for 16 h at 4° C. and shaking at 140 rpm Secondary Antibodies: Mouse natriuretic peptides B DyLight800 antibody (1:5000; Hytest, AntibodiesOnline product ABIN263370), goat anti-human IgG (Fc) DyLight680 (1:5000); 45 min staining in incubation buffer at RT Control Antibodies: Mouse monoclonal anti-HA (12CA5) DyLight680(1:2000), mouse monoclonal anti-HA (12CA5) DyLight800 (1:2000); 45 min staining in incubation buffer at RT Scanner: LI-COR Odyssey Imaging System; scanning offset 0.65 mm, resolution 21 μm, scanning intensities of 7/7 (red=700 nm/green=800 nm)
After 15 min pre-swelling in washing buffer and 30 min in blocking buffer, two PEPperCHIP® Discovery Microarrays were initially incubated with the secondary antibodies mouse natriuretic peptides B DyLight800 (1:5000) and goat anti-human IgG (Fc) DyLight680 (1:5000) as well as with the control antibodies in incubation buffer to analyze background interactions with the 36,040 different random cyclic constrained peptides of the microarrays. Subsequent incubation of the PEPperCHIP® Discovery Microarrays was done with target proteins NBL1 at concentrations of 1 μg/ml and 10 μg/ml in incubation buffer and followed by staining with the secondary antibodies as well as read-out with a LI-COR Odyssey Imaging System at scanning intensity of 7/7 (red/green). The additional HA peptides framing the peptide microarrays were simultaneously stained as internal quality control to confirm the assay quality and the peptide microarray integrity.
A software algorithm breaks down fluorescence intensities of each spot into raw, foreground and background signal, and calculates averaged median foreground intensities and spot-to-spot deviations of spot duplicates. We tolerated a maximum spot-to-spot deviation of 40%, otherwise the corresponding intensity value was zeroed. Based on averaged median foreground intensities, an intensity map was generated and interactions in the peptide map highlighted by an intensity color code with red(NBL1 for high and white for low spot intensities.
To identify the top interactions of the target proteins, the averaged and corrected intensity values were sorted by decreasing spot intensities. We further plotted averaged spot intensities of all assays against the microarray content from left on top to right on bottom of the chip to visualize overall spot intensities and signal-to-noise ratios. For a better data overview, the baselines of the intensity plots were leveled and main responses annotated next to the corresponding signal. The intensity plots were correlated with peptide and intensity maps as well as with visual inspection of the microarray scans to identify peptides that interacted with target proteins NBL1.
Turning to ARMRQTHRPVYR, the “intensity values, 10 μg/ml” value is on record as 317.5.

In the case of ARQSHRRPGGKR, the “intensity values, 10 μg/ml” value worked out at 338.

Take CHCIHFTHRRLR: the “intensity values, 10 μg/ml” value came out at 290.

For DFKQLLLPGRKR, the “intensity values, 10 μg/ml” value was 216.

In the case of DMAARCVCKRRR, the “intensity values, 10 μg/ml” value is on record as 554.

On to DSRKFFYRGNRR, for which the “intensity values, 10 μg/ml” value turned out to be 328.

With FDWRISQRMRRR, the “intensity values, 10 μg/ml” value was 448.

In the case of FPMCQKVPFVRR, the “intensity values, 10 μg/ml” value was 174.5.

As for FPQSRGRGKLWR, the “intensity values, 10 μg/ml” value was 195.

As to FWFHLKYWAWRR, the “intensity values, 10 μg/ml” value is 215.

Consider GDRGCFFIVTFI, for which the “intensity values, 10 μg/ml” value came out at 214.

In the case of GRHLPEASKRFR, the “intensity values, 10 μg/ml” value is 192.

Consider HTWPYALTQKRR, for which the “intensity values, 10 μg/ml” value is 176.5.

As to IRHSDRVDRYSR, the “intensity values, 10 μg/ml” value is recorded as 172.

On to IYFYSCSVPGMY, for which the “intensity values, 10 μg/ml” value came to 233.

Turning to KQRSKRMASMKLF, the “intensity values, 10 μg/ml” value worked out at 249.

Turning to KVALFLANRLFR, the “intensity values, 10 μg/ml” value is 181.

On to KVRALRDISYRR, for which the “intensity values, 10 μg/ml” value is reported as 190.5.

Take LFENCANVCIGL: the “intensity values, 10 μg/ml” value is reported as 193.5.

Consider LGPAACFTSEPV, for which the “intensity values, 10 μg/ml” value was 212.5.

In the case of LRLFKISRNFPR, the “intensity values, 10 μg/ml” value is listed as 177.

In the case of LRNVVFIWHIRYR, the “intensity values, 10 μg/ml” value came to 213.

In the case of LVMWHRHFALRR, the “intensity values, 10 μg/ml” value stood at 185.

As to MFFRPFKGHGRR, the “intensity values, 10 μg/ml” value turned out to be 251.5.

As for NCYHMVYYLIIL, the “intensity values, 10 μg/ml” value was 185.

For NKQMNHPPRRHR, the “intensity values, 10 μg/ml” value is 210.

Consider RFNHVTCRTFKR, for which the “intensity values, 10 μg/ml” value turned out to be 301.5.

Take RFTYSPTQRAYR: the “intensity values, 10 μg/ml” value is recorded as 186.

On to RHGTRYHSRLFR, for which the “intensity values, 10 μg/ml” value was found to be 179.5.

Turning to RKKDPRAYDRFR, the “intensity values, 10 μg/ml” value is 294.5.

As to RPRHVFKLYGRL, the “intensity values, 10 μg/ml” value stood at 205.

On to RQNANKAWQKRR, for which the “intensity values, 10 μg/ml” value is reported as 182.5.

As to RRRAQPSPMRHK, the “intensity values, 10 μg/ml” value turned out to be 187.

In the case of RYNQSIRVIIGR, the “intensity values, 10 μg/ml” value amounted to 234.

With SQKMLRRGGMIRK, the “intensity values, 10 μg/ml” value is given as 236.5.

SRHNYSHWFYRR: the “intensity values, 10 μg/ml” value worked out at 198.

For TLRCHRHRFR, the “intensity values, 10 μg/ml” value was 489.

As for TYDNYIRYFRIR, the “intensity values, 10 μg/ml” value came to 175.

For the sequence VDFGGGWVCFCP, the “intensity values, 10 μg/ml” value is reported as 189.

In the case of VHQCRASRYPRI, the “intensity values, 10 μg/ml” value came out at 235.5.

For the sequence “WVARDHVNHNRR (not fully specified (C-terminus, bridges); also: cyclized via thioether between C-terminal Cys side chain and modified N-terminus)”, the “intensity values, 10 μg/ml” value is recorded as 189.

As to “WVRIRLSRRQFR (not fully specified (C-terminus, bridges); also: cyclized via thioether between C-terminal Cys side chain and modified N-terminus)”, the “intensity values, 10 μg/ml” value amounted to 235.

Take “YGSHYYWNHLRR (not fully specified (C-terminus, bridges); also: cyclized via thioether between C-terminal Cys side chain and modified N-terminus)”: the “intensity values, 10 μg/ml” value was 185.

With “YHATGVRWRFLR (not fully specified (C-terminus, bridges); also: cyclized via thioether between C-terminal Cys side chain and modified N-terminus)”, the “intensity values, 10 μg/ml” value worked out at 445.

On to “YHHKPQRQNRGR (not fully specified (C-terminus, bridges); also: cyclized via thioether between C-terminal Cys side chain and modified N-terminus)”, for which the “intensity values, 10 μg/ml” value is given as 283.

For “YMPSNCCWWWRR (not fully specified (C-terminus, bridges); also: cyclized via thioether between C-terminal Cys side chain and modified N-terminus)”, the “intensity values, 10 μg/ml” value is 197.

In the case of “YWHKKLYYMRYR (not fully specified (C-terminus, bridges); also: cyclized via thioether between C-terminal Cys side chain and modified N-terminus)”, the “intensity values, 10 μg/ml” value was 200.5.

As to “YWTKGLLWRNRR (not fully specified (C-terminus, bridges); also: cyclized via thioether between C-terminal Cys side chain and modified N-terminus)”, the “intensity values, 10 μg/ml” value is reported as 323.

Consider “YYRIHHQRRGRS (not fully specified (C-terminus, bridges); also: cyclized via thioether between C-terminal Cys side chain and modified N-terminus)”, for which the “intensity values, 10 μg/ml” value was determined as 452.
